Measurements: publication PMC314469, “Protein Interaction Networks by Proteome Peptide Scanning” (PLoS Biology, 2004)

T1: Abp1 SH3 (ABP1_YEAST), P15891
T1 chain: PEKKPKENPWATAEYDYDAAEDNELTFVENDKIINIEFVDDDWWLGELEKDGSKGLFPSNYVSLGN

B1: YGR193C 231-243 (peptide)
chain: LDLSNIKPIQLKP
B2: YHR204W 395-408 (peptide)
chain: LDNILPLEWYPLRP
B3: YPL029W 708-720 (peptide)
chain: LDRLKKNPYAHKP
B4: YER093C 582-594 (peptide)
chain: LDVLKIKPLPYKP
B5: YLR428C 53-65 (peptide)
chain: LEARTNFPLILRP
B6: YLR429W 427-439 (peptide)
chain: LEEKKEQPKVEKP
B7: YGR230W 120-133 (peptide)
chain: LEFVRGKQNIPRKP
B8: YGL131C 1252-1264 (peptide)
chain: LEGNELYPLSYKP
B9: YOL021C 286-298 (peptide)
chain: LEGSVSLPRFSKP
B10: YPL167C 291-304 (peptide)
chain: LEKLGDISDIPVKP
B11: YNL284C 230-242 (peptide)
chain: LEKRGRVPLQARP
B12: YJR066W 2073-2086 (peptide)
chain: LELAVPGTYFPGKP
B13: YDR285W 822-834 (peptide)
chain: LELTNPSPIQIKP
B14: YOL087C 650-662 (peptide)
chain: LELVQPLPASKKP
B15: YLR085C 335-347 (peptide)
chain: LESLSMLPEIVRP
B16: YBR136W 2029-2042 (peptide)
chain: LESNSMRGYQPFRP
B17: YAL028W 269-282 (peptide)
chain: LESSPKKHVSPSRP
B18: YFL004W 802-814 (peptide)
chain: LEVPERIPEVLRP
B19: YLL015W 4-16 (peptide)
chain: LEVVDGSPYGYRP
B20: YGR232W 85-98 (peptide)
chain: LEVVKSLYDRPLKP
B21: YDR392W 289-302 (peptide)
chain: LFDGPENVINPLKP
B22: YJL095W 372-385 (peptide)
chain: LFGSGIGEEAPTKP
B23: YLR054C 309-322 (peptide)
chain: LGIDKRSSTKPTKP
B24: YKL048C 110-123 (peptide)
chain: LGKVVAVKIIPKKP
B25: YPR099C 85-97 (peptide)
chain: LHGNTNAPTPLRP
B26: YOL078W 925-937 (peptide)
chain: LHLEKMKPDLKKP
B27: YMR110C 95-107 (peptide)
chain: LHLIEILPKLIKP
B28: YGL174W 3-16 (peptide)
chain: LHQYLSETYGPTKP
B29: YGR198W 51-64 (peptide)
chain: LHYHVIGSNGPAKP
B30: YNL213C 178-191 (peptide)
chain: LIARNVRTFKPFKP
B31: YER101C 153-165 (peptide)
chain: LIDPRVDPILMRP
B32: YAL017W 1330-1343 (peptide)
chain: LIKSILNRSVPKRP
B33: YOL072W 276-289 (peptide)
chain: LILGKMVKWGPLRP
B34: YMR049C 412-424 (peptide)
chain: LIPELPSPKDLRP
B35: YML010W 362-374 (peptide)
chain: LIPVQELPLLLKP
B36: YOL008W 135-148 (peptide)
chain: LISKWTIMPHPNRP
B37: YOR147W 33-45 (peptide)
chain: LITRLRVPTIKRP
B38: YFR013W 73-85 (peptide)
chain: LKERANKPKRKRP
B39: YLR193C 56-68 (peptide)
chain: LKKSGKLPTWVKP
B40: YKR084C 74-87 (peptide)
chain: LKKTLKKKKTPKKP
B41: YBR050C 283-296 (peptide)
chain: LKLSNISHHSPVKP
B42: YJL141C 497-510 (peptide)
chain: LKPENILLSAPDKP

Biological target: T1, Abp1 SH3 (ABP1_YEAST), P15891
Assay: SPOT array

| Binder | normalised SPOT signal, Boehringer light units (BLU); mean over the file's lines of this peptide |
| --- | --- |
| B1 | 176 |
| B2 | 84.7 |
| B3 | 577 |
| B4 | 2070 |
| B5 | 84.3 |
| B6 | 86.1 |
| B7 | 800 |
| B8 | 65.6 |
| B9 | 76.1 |
| B10 | 138 |
| B11 | 1240 |
| B12 | 40 |
| B13 | 82.9 |
| B14 | 118 |
| B15 | 118 |
| B16 | 250 |
| B17 | 184 |
| B18 | 14.9 |
| B19 | 0 |
| B20 | 63.6 |
| B21 | 35 |

| Binder | normalised SPOT signal, Boehringer light units (BLU); mean over the file's lines of this peptide |
| --- | --- |
| B22 | 118 |
| B23 | 188 |
| B24 | 185 |
| B25 | 69 |
| B26 | 88.4 |
| B27 | 110 |
| B28 | 39 |
| B29 | 60.8 |
| B30 | 176 |
| B31 | 75.9 |
| B32 | 324 |
| B33 | 404 |
| B34 | 81.6 |
| B35 | 74.2 |
| B36 | 1030 |
| B37 | 748 |
| B38 | 157 |
| B39 | 40.8 |
| B40 | 163 |
| B41 | 103 |
| B42 | 7.9 |
